From publication PMC3608554

Molecular target: PLCg2 (UniProt P16885)
Assay: anti-PLCg2 IP, anti-BANK1 blot
Conditions: reference: wild type; sites Y484,Y488

BANK1 (from UniProt Q8NDB2) Y484F/Y488F
binding against the reference: weaker
